Read-outs that look alike come from different tables or passages of the source.

Data on one molecule can be found in publication doi:10.1101/2023.08.25.554718 (2023).

Assay [1] deals with T1, CX3CR1 nucleosome (human core histones, wild type) (human, UniProt P04908 1-124; O60814 1-124; P68431 1-136; P62805 1-103).
For assay [2], the target named is T1, CX3CR1 nucleosome (human core histones, …). The experiment in a line: with scFv.

B1: MBP-DBDC/EBPα (protein)
chain: MHLQPGHPTPPPTPVPSPHAAPALGAAGLPGPGSALKGLAGAHPDLRTGGGGGGSGAGAGKAKKSVDKNSNEYRVRRERNNIAVRKSRDKAKQRNVETQQKVLELTSDNDRLRKRVEQLSRELDTLRGIFRQLPESSLVKAMGNCA
What is called Kd is the free concentration of one partner at which half of the binding sites on the other are occupied at equilibrium, for simple one-to-one binding. Consider B1, for which the Kd in assay [1] came out at 1700 nM; in assay [2], 1500 nM.
